Reference: IntAct's records for PubMed 28838205

B1: WW domain-binding protein 4 (Homo sapiens), O75554 (parent)
chain: MADYWKSQPKKFCDYCKCWIADNRPSVEFHERGKNHKENVAKRISEIKQKSLDKAKEEEKASKEFAAMEAAALKAYQEDLKRLGLESEILEPSITPVTSTIPPTSTSNQQKEKKEKKKRKKDPSKGRWVEGITSEGYHYYYDLISGASQWEKPEGFQGDLKKTAVKTVWVEGLSEDGFTYYYNTETGESRWEKPDDFIPHTSDLPSSKVNENSLGTLDESKSSDSHSDSDGEQEAEEGGVSTETEKPKIKFKEKNKNSDGGSDPETQKEKSIQKQNSLGSNEEKSKTLKKSNPYGEWQEIKQEVESHEEVDLELPSTENEYVSTSEADGGGEPKVVFKEKTVTSLGVMADGVAPVFKKRRTENGKSRNLRQRGDDQ
partner: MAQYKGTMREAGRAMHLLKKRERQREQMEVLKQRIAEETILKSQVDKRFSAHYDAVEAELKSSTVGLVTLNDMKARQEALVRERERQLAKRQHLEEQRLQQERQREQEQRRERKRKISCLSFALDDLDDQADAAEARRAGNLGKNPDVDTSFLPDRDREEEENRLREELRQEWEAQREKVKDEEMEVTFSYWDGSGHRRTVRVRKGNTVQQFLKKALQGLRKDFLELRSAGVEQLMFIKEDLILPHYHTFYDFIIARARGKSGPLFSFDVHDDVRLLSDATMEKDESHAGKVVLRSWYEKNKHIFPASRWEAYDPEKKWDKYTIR
B2: WW domain-binding protein 4 (Homo sapiens), O75554 (parent)
chain: B1 chain
partner: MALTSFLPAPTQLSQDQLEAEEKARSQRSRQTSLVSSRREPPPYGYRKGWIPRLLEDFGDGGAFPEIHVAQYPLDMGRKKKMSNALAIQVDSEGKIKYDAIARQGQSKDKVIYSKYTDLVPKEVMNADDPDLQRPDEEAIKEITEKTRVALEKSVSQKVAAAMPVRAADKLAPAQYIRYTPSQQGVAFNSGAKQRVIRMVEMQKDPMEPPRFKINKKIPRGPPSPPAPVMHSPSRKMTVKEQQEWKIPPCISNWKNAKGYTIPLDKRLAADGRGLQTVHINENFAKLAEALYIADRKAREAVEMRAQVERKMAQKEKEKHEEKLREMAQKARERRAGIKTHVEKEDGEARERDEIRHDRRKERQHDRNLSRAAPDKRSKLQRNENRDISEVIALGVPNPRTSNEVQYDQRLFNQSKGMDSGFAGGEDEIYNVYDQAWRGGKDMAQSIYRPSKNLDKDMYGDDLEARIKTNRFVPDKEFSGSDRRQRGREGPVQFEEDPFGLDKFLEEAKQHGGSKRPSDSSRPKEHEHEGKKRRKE
B3: WW domain-binding protein 4 (Homo sapiens), O75554 (parent)
chain: B1 chain
B4: WW domain-binding protein 4 (Homo sapiens), O75554 (parent)
chain: B1 chain
partner: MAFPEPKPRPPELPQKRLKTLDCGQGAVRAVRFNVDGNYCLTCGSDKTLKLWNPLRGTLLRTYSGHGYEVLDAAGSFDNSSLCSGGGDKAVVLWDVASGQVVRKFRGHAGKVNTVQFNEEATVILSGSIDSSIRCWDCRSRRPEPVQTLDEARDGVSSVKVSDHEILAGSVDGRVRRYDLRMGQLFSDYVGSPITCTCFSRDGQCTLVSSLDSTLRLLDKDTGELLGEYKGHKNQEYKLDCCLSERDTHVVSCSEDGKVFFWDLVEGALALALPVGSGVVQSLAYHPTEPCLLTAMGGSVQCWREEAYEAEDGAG

Variants of: B1
Conditions: with fa50b_human FAM50B

effect of a mutation on the interaction	Variant
with no effect	W150A

Variants of: B2
Conditions: with snw1_human SNW1, Q13573

effect of a mutation on the interaction	Variant
with no effect	W150A

Variants of: B3
Conditions: with u520_human SNRNP200, O75643
u520_human SNRNP200, O75643, sequence (O75643 whole entry): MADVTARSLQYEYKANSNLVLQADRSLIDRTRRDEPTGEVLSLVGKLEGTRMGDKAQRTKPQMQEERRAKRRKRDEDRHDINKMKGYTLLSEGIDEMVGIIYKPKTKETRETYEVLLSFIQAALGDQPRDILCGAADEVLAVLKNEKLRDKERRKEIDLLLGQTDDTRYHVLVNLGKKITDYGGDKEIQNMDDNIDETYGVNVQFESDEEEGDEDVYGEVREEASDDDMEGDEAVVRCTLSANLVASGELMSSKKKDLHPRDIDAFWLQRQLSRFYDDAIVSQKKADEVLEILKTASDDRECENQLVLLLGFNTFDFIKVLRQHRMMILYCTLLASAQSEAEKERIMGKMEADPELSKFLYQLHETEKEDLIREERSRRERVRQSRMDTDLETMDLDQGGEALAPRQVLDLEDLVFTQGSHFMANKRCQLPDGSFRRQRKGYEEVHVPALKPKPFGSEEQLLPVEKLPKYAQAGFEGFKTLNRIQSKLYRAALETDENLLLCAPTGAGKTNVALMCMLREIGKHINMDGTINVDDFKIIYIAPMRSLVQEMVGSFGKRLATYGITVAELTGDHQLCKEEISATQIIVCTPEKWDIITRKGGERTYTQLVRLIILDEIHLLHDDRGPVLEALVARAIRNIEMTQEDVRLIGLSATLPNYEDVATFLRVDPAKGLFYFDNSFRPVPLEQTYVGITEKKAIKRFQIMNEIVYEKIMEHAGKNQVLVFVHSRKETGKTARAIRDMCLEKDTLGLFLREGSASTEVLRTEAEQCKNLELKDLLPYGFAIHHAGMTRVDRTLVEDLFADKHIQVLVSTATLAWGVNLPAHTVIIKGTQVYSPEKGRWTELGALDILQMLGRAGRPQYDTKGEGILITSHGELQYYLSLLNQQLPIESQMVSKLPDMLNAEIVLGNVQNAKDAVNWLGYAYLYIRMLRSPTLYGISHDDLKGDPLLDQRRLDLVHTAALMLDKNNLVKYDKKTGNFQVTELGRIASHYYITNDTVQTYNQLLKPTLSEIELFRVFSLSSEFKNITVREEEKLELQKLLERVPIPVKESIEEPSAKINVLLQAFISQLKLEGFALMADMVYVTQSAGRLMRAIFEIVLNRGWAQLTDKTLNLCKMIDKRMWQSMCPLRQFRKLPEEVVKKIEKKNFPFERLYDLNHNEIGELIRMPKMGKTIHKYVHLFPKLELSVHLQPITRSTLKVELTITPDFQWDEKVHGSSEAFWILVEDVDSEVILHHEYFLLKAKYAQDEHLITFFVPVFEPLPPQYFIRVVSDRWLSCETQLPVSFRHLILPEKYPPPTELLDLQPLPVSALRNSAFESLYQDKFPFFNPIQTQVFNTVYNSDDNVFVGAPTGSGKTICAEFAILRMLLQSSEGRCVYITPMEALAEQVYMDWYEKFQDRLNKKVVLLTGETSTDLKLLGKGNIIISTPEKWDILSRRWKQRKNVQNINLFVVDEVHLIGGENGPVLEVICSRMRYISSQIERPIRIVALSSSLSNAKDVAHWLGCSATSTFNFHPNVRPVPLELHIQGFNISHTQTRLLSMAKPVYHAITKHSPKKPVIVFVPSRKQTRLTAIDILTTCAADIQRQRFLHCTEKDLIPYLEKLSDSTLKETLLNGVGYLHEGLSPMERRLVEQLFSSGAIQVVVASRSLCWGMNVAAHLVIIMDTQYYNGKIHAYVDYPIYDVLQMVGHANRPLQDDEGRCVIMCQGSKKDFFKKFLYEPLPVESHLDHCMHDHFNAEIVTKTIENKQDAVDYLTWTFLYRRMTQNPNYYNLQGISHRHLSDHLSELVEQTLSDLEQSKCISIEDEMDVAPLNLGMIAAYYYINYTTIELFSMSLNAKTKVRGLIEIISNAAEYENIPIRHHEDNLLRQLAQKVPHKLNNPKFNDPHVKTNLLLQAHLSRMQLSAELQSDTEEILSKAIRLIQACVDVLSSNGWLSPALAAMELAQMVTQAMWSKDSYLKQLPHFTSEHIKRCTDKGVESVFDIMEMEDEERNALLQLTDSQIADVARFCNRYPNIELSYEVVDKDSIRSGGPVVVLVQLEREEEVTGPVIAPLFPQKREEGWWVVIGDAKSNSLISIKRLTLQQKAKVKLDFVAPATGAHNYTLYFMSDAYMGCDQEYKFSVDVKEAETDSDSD

effect of a mutation on the interaction	Variant
decreasing interaction strength	K358A;R360A
decreasing interaction strength	K357E;R359E

Variants of: B3
Conditions: with u520_human SNRNP200, O75643
Remark: another data set of the same source

effect of a mutation on the interaction	Variant
with no effect	K357E;R359E

Variants of: B3
Conditions: with u520_human SNRNP200, O75643
Remark: another data set of the same source

effect of a mutation on the interaction	Variant
with no effect	W150A

Variants of: B3
Conditions: with ppih_human PPIH

effect of a mutation on the interaction	Variant
with no effect	W150A

Variants of: B3
Conditions: with sf3b2_human SF3B2, Q13435
sf3b2_human SF3B2, Q13435, sequence (Q13435 whole entry): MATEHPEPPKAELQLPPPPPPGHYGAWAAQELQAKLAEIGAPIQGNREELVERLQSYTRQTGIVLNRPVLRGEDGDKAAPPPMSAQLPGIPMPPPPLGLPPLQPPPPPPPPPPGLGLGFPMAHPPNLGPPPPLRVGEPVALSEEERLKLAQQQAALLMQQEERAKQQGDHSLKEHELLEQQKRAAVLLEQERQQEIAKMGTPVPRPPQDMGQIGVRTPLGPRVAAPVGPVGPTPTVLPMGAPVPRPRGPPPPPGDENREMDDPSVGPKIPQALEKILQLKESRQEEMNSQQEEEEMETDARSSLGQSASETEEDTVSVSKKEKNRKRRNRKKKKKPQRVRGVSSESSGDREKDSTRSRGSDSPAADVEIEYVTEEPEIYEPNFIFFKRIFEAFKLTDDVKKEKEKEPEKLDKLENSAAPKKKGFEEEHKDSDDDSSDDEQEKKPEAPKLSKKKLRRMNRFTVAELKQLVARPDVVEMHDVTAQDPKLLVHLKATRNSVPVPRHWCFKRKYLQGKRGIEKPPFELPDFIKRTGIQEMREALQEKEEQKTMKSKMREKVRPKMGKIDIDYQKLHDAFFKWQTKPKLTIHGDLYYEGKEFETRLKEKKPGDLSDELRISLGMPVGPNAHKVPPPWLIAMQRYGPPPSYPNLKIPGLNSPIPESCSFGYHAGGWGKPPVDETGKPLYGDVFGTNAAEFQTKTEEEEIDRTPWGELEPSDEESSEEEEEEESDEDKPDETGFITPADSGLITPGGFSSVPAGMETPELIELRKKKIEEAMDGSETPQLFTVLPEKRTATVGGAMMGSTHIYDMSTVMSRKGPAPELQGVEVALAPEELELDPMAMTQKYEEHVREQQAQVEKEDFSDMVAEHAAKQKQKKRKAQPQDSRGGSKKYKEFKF

effect of a mutation on the interaction	Variant
with no effect	W150A

Variants of: B3
Conditions: with zc21a_human ZC2HC1A

effect of a mutation on the interaction	Variant
with no effect	W150A

Variants of: B4
Conditions: with wdr83_human WDR83, Q9BRX9

effect of a mutation on the interaction	Variant
with no effect	W150A
